From US20080306007A1, “AGENTS FOR PROPHYLAXIS OR TREATMENT OF NEUROLOGICAL RELATED DISEASES AND CONDITIONS” (Newcastle Innovation Limited, priority 2007, published 2008)

What was measured:
[1] = target: amphiphysin I (native, from rat brain lysate) (rat) (UniProt O08838); assay: peptide competition in GST-DynI-PRD pull-down from rat brain lysate; the filing later calls this an experimental artefact
[2] = target: dynamin I (native, from rat brain synaptosomes; total pool) (rat) (UniProt P21575); assay: sequential GST pull-downs from synaptosome lysate; molar ratio GST-AmphI-SH3:dynamin above 2:1
dynamin I (native, from rat brain synaptosomes; total pool) (rat), sequence (P21575 whole entry): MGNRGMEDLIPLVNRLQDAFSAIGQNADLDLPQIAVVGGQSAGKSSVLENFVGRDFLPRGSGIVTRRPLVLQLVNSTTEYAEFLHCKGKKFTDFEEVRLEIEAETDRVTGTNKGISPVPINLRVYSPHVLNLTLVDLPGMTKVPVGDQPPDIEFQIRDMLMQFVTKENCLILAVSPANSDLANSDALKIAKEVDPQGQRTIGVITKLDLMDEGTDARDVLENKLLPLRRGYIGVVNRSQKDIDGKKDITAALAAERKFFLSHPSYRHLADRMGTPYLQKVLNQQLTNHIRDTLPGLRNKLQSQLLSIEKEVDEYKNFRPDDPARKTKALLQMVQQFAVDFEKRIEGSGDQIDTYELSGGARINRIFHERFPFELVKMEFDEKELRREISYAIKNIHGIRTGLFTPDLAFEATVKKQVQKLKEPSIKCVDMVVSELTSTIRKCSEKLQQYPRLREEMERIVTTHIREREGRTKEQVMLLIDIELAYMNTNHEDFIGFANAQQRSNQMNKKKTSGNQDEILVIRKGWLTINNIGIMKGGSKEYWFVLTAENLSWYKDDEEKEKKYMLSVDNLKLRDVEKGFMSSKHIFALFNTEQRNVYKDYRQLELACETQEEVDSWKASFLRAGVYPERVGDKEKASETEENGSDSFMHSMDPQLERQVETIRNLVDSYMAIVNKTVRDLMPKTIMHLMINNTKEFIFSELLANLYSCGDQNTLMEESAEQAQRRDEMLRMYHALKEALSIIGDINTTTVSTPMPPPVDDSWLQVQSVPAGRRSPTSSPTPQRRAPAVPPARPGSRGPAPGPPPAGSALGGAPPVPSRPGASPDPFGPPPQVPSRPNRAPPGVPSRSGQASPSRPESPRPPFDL

[3] = target: dynamin I (native, from rat brain synaptosomes; total pool) (rat) (UniProt P21575); assay: GST pull-down from synaptosome lysate without salt
[4] = target: phospho-dynamin I (native, phosphorylated in vivo, from rat brain synaptosomes) (rat) (UniProt P21575); assay: GST pull-down from 32Pi-labelled synaptosome lysate, 150 mM NaCl, quantitative analysis of autoradiograph against protein
phospho-dynamin I (native, phosphorylated in vivo, from rat brain synaptosomes) (rat), sequence (P21575 whole entry): as above

amphiphysin I (native, from rat brain lysate) (rat), sequence (O08838 whole entry): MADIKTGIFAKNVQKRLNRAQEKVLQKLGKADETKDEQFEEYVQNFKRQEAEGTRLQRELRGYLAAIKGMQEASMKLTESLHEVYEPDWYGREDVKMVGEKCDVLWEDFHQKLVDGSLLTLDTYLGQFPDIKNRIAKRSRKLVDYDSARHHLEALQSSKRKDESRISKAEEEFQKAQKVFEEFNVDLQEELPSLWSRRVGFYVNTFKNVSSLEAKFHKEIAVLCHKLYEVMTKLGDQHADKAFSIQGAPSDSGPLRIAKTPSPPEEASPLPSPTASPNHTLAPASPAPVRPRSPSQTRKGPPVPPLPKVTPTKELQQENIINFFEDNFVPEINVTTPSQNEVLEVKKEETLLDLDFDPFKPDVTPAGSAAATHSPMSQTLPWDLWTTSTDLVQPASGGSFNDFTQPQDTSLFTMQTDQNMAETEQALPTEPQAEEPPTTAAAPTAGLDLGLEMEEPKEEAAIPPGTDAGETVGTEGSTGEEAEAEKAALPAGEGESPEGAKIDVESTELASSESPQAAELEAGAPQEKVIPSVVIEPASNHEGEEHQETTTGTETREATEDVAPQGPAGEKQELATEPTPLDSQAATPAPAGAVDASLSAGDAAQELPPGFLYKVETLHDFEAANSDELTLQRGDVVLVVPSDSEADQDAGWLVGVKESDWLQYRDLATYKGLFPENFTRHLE
GST-EndoI-SH3, sequence (O35179 290-349): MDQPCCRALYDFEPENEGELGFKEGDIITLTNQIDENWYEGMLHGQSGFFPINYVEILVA

Substance: DynI783-796 peptide
- fold higher peptide concentration needed for inhibition [1]: 10 fold

Substance: GST-AmphI-SH3
- residual dynamin recovered in a second sequential pull-down [2]: < 1%

Substance: GST-EndoI-SH3
- percent of synaptosomal dynamin I extracted [3]: > 95%

Substance: full-length GST-fusion protein of endophilin I (EndoI-FL)
- binding to phospho-dynamin I relative to the total dynamin I bound to the beads (% of AmphI-SH3 control) [4]: 91

Substance: full-length GST-fusion protein of syndapin I (SdpnI-FL)
- binding to phospho-dynamin I relative to the total dynamin I bound to the beads (% of AmphI-SH3 control) [4]: 56
